Biological target: T1, RNF31 UBA domain (Homo sapiens, UniProt Q96EP0)
T1 construct: RNF31 UBA domain protein (residues 480-639) with N-terminal Thioredoxin-TEV-6×his-yBBr-3C tags; Thioredoxin (N, cleaved yes); made in house; host or cells: E. coli BL21 (DE3) pLysS
T1 sequence (Q96EP0 480-639): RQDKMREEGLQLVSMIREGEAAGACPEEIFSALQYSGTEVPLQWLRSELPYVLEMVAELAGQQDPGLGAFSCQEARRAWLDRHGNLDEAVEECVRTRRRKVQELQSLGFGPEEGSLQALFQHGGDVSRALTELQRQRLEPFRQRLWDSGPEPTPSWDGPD
Assay: Phage Library Screening with NGS, RNF31 UBA domain
Type: binding
Details: for phage screen NGS read-out at Target Concentration 10 / phage screen NGS read-out at Target Concentration 30 / phage screen NGS read-out at Target Concentration 100 / phage screen NGS read-out at Target Concentration 300: no competitor; for Phage library screen NGS readout, Target Concentration 10 / Phage library screen NGS readout, Target Concentration 30 / Phage library screen NGS readout, Target Concentration 100 / Phage library screen NGS readout, Target Concentration 300 / Phage library screen NGS readout, Target Concentration 1000: RNF31 UBA domain cluster C46; for Phage library screen NGS readout, BLANK: cluster C46

[1] = target concentration 1000, first column
[2] = target concentration 1000, second column

| Sequence | phage screen NGS read-out at Target Concentration 10 | phage screen NGS read-out at Target Concentration 30 | phage screen NGS read-out at Target Concentration 100 | phage screen NGS read-out at Target Concentration 300 | Phage library screen NGS readout, Target Concentration 10 | Phage library screen NGS readout, Target Concentration 30 | Phage library screen NGS readout, Target Concentration 100 | Phage library screen NGS readout, Target Concentration 300 | Phage library screen NGS readout, Target Concentration 1000 [1] | Phage library screen NGS readout, Target Concentration 1000 [2] | Phage library screen NGS readout, BLANK (column 1 of 5) | Phage library screen NGS readout, BLANK (column 2 of 5) | Phage library screen NGS readout, BLANK (column 3 of 5) | Phage library screen NGS readout, BLANK (column 4 of 5) | Phage library screen NGS readout, BLANK (column 5 of 5) |
| --- | --- | --- | --- | --- | --- | --- | --- | --- | --- | --- | --- | --- | --- | --- | --- |
| DPASIHCAAAALWCDIL | 0 | 0 | 1 | 8 | – | – | – | – | – | – | – | – | – | – | – |
| DPATQHCLAAAMWCHLI | 0 | 0 | 1 | 3 | – | – | – | – | – | – | – | – | – | – | – |
| DPAQLNCLSAAMYCALY | – | – | – | – | 2 | 19 | 49 | 95 | 104 | 111 | 0 | 0 | 1 | 0 | 0 |
| DPAALACLSAAVYCEMY | – | – | – | – | 6 | 49 | 132 | 200 | 199 | 246 | 0 | 1 | 2 | 0 | 1 |
| DPAEWLCQMAAHNCIYL | 0 | 1 | 2 | 13 | – | – | – | – | – | – | – | – | – | – | – |
| DPAAQACLSAAVFCAWY | – | – | – | – | 5 | 19 | 45 | 86 | 88 | 97 | 0 | 0 | 0 | 0 | 0 |
| DPAHEHCTSAAAWCMLL | 0 | 0 | 0 | 2 | – | – | – | – | – | – | – | – | – | – | – |
| DPALTHCTAAAYWCYVM | 0 | 0 | 0 | 2 | – | – | – | – | – | – | – | – | – | – | – |
| DPAFSQCVYAAFFCREI | 1 | 0 | 2 | 20 | – | – | – | – | – | – | – | – | – | – | – |
| DPAFSMCVYAAVTCVST | 0 | 0 | 0 | 4 | – | – | – | – | – | – | – | – | – | – | – |
| DPAFSLCVYAALFCEQQ | 0 | 0 | 8 | 20 | – | – | – | – | – | – | – | – | – | – | – |

— patent US20240376151A1, “STAPLED PEPTIDES AND METHODS THEREOF” (FOG PHARMACEUTICALS, INC., priority 2022, published 2024)
